This is an account of results in PMC4895442, “Geometrical assembly of ultrastable protein templates for nanomaterials” (Nature Communications, 2016).

Data set [1] addresses TERM-foldon three-way connector (Methanocaldococcus jannaschii | bacteriophage T4) (UniProt P10104). Description: SDS-PAGE without heating; refolded three-way connector dialyzed against PBS, SDS loading buffer added, incubated at 25-100 °C for 5 min, 10-20% gradient SDS-PAGE; the foldon trimer resists SDS.
Data set [2] deals with the molecule itself. In words: negative-stain TEM; proteins refolded together at varying molar ratios, diluted in PBS to 20 μg/ml, on carbon/formvar grids, 2% uranyl acetate.

By stoichiometry N is commonly meant the number of molecules, sites or subunits per partner or assembly. Molecule “TERM-foldon three-way connector (from UniProt P10104 2-81)” gave a stoichiometry N in data set [1] of 3.

B1: γ-prefoldin (γPFD), wild type (natural protein, Methanocaldococcus jannaschii, UniProt Q58064 1-147, looked up)
chain: MVNEVIDINEAVRAYIAQIEGLRAEIGRLDATIATLRQSLATLKSLKTLGEGKTVLVPVGSIAQVEMKVEKMDKVVVSVGQNISAELEYEEALKYIEDEIKKLLTFRLVLEQAIAELYAKIEDLIAEAQQTSEEEKAEEEENEEKAE
notes: γ-prefoldin (γPFD), filamentous prefoldin-family chaperone of the hyperthermophile Methanocaldococcus jannaschii; wild type; Assembles into filaments of variable length through the β-sheets X1 and X2; also called γPFD filaments; γPFD subunits
Turning to B1, the binding result in data set [2] is recorded as “binds”.
